According to patent US20220041711A1 (NGM BIOPHARMACEUTICALS, published 2022):

T1: collagen 17A1 (COL17A1) expressed on 721.221 cells (UniProt Q9UMD9 1-1497, limits assumed)
T1 construct: whole, on cells
T1 sequence (looked up): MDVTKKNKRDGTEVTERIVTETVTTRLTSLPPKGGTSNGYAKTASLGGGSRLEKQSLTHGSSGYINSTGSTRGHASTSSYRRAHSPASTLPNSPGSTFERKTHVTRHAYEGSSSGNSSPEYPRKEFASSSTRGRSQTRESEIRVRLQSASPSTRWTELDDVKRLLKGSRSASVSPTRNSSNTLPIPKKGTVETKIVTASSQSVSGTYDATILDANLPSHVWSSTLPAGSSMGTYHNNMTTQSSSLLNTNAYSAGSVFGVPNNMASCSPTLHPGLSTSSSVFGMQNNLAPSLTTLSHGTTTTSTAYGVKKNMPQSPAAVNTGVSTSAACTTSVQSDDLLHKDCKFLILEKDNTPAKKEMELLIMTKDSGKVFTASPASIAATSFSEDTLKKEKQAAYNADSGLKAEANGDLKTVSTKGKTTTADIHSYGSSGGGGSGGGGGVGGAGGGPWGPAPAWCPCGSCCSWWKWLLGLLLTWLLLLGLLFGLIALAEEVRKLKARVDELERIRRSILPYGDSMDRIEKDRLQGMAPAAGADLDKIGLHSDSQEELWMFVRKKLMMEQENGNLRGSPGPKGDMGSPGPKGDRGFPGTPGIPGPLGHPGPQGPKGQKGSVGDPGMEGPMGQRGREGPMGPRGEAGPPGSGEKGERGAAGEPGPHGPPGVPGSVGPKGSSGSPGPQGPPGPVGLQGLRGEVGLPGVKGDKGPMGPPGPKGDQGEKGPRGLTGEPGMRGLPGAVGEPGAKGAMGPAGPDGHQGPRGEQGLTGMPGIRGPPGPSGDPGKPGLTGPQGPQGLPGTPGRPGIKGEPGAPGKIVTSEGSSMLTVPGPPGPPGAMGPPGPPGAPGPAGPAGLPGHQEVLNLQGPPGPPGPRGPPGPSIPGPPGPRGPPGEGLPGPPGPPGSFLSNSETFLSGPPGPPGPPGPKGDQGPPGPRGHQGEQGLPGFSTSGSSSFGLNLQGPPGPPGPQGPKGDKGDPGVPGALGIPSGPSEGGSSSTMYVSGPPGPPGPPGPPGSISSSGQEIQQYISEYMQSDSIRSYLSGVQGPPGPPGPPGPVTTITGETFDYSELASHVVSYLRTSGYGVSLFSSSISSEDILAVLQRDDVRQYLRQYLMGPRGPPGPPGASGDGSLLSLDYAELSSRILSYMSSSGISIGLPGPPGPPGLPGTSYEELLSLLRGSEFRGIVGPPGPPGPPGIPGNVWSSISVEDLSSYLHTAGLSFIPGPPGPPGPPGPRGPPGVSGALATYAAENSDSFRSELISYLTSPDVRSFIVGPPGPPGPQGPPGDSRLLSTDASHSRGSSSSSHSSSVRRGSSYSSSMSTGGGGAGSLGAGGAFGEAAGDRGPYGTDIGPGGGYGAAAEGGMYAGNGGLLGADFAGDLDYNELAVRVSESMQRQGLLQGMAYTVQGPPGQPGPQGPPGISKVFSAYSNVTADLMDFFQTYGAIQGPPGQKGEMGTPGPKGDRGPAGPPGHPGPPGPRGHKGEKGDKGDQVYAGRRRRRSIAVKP

T2: MSR1 expressed on transfected 293T cells (UniProt P21757 1-451, limits assumed)
T2 construct: whole, on cells
T2 sequence (looked up): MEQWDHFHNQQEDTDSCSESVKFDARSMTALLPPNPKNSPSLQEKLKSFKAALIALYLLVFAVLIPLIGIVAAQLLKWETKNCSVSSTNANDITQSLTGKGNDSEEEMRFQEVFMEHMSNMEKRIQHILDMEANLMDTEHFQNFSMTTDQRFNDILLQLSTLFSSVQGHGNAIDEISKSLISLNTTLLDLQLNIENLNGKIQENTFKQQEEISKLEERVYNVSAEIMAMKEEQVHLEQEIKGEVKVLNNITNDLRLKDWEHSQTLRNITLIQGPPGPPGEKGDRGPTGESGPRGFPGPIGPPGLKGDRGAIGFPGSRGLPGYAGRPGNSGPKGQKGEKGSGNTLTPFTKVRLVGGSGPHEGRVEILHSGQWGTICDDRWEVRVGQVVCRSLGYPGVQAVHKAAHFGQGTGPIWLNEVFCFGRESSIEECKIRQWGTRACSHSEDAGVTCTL

T3: human MARCO expressed on cells (721.221-MARCO, 293T-MARCO) (human, UniProt Q9UEW3 1-520)
T3 construct: also called 721.221 cells expressing MARCO
T3 sequence: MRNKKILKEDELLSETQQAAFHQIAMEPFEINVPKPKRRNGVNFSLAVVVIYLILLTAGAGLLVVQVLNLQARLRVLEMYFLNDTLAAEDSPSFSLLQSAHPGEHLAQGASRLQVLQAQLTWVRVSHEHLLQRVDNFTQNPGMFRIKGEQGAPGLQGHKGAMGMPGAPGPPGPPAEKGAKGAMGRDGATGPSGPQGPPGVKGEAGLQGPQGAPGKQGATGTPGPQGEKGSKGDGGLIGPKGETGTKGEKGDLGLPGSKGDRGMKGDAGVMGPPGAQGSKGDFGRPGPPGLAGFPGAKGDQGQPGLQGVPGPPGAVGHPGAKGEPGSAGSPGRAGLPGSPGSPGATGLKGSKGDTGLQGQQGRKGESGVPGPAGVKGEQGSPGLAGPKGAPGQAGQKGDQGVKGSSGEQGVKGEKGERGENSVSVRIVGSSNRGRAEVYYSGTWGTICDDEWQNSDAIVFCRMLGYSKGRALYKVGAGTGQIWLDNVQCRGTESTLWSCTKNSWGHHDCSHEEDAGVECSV

T4: human MARCO (form in the assay not stated) (human, UniProt Q9UEW3 79-520, limits assumed)
T4 sequence: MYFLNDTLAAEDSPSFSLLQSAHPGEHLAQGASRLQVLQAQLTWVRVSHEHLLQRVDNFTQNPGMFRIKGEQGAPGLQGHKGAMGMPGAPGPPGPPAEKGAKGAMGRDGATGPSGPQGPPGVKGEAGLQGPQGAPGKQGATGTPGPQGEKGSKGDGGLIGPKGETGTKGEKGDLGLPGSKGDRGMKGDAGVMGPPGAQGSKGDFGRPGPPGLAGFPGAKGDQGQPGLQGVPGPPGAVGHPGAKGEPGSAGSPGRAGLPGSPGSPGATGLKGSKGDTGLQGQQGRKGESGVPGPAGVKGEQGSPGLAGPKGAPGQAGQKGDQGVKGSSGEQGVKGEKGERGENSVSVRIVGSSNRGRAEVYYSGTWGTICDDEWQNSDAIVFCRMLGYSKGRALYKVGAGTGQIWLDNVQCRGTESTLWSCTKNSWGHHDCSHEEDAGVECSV

B1: anti-MARCO antibody 10G4 (antibody, mouse IgG2a, kappa)
heavy: QVQLKESGPGLVAPSQSLSITCTVSGFSLSSYPISWVRQPPGKGLEWLGIIWTGGGTNYNSALKSRLSISKDNSKSQVFLKMNSLQTDDTARYYCASQNWDVNSALDYWGQGTSVTVSSAKTTAPSVYPLAPVCGDTTGSSVTLGCLVKGYFPEPVTLTWNSGSLSSGVHTFPAVLQSDLYTLSSSVTVTSSTWPSQSITCNVAHPASSTKVDKKIEPRGPTIKPCPPCKCPAPNAAGGPSVFIFPPKIKDVLMISLSPIVTCVVVDVSEDDPDVQISWFVNNVEVHTAQTQTHREDYNSTLRVVSALPIQHQDWMSGKEFKCKVNNKDLGAPIERTISKPKGSVRAPQVYVLPPPEEEMTKKQVTLTCMVTDFMPEDIYVEWTNNGKTELNYKNTEPVLDSDGSYFMYSKLRVEKKNWVERNSYSCSVVHEGLHNHHTTKSFSRTPGK
light: DIQMTQSPASLSVSVGETVTITCRASENIYSNLAWYQQKQGKSPQLLVYTATNLADGVPSRFSGSGSGTQYSLRINRLQSEDFGNYYCQHFWNAPWTFGGGTKLEIKRADAAPTVSIFPPSSEQLTSGGASVVCFLNNFYPKDINVKWKIDGSERQNGVLNSWTDQDSKDSTYSMSSTLTLTKDEYERHNSYTCEATHKTSTSPIVKSFNRNEC
notes: detected with anti-mouse IgG; copies: 2 + 2
B2: anti-MARCO antibody 15A3 (antibody, mouse IgG2a, kappa)
heavy: EIQLQQSGPELVKPGASVKVSCKASGYSFTDYNMYWVKQSHGKSLEWIGYIDPYNGGTSYNQKFKGKATLTVDKSSSTAFMHLNSLTSEDSAVYYCARLRSPYDYDRGDYVMDYWGQGTSVTVSSAKTTAPSVYPLAPVCGDTTGSSVTLGCLVKGYFPEPVTLTWNSGSLSSGVHTFPAVLQSDLYTLSSSVTVTSSTWPSQSITCNVAHPASSTKVDKKIEPRGPTIKPCPPCKCPAPNAAGGPSVFIFPPKIKDVLMISLSPIVTCVVVDVSEDDPDVQISWFVNNVEVHTAQTQTHREDYNSTLRVVSALPIQHQDWMSGKEFKCKVNNKDLGAPIERTISKPKGSVRAPQVYVLPPPEEEMTKKQVTLTCMVTDFMPEDIYVEWTNNGKTELNYKNTEPVLDSDGSYFMYSKLRVEKKNWVERNSYSCSVVHEGLHNHHTTKSFSRTPGK
light: DIVLTQSPASLAVSLGQRATISCRASKSVSTSGYTYMHWYQQKPGQPPKLLIYLASNLESGVPARFSGSGSGTDFTLNIHPVEEEDAATYYCQHSRELPLTFGAGTKLELKRADAAPTVSIFPPSSEQLTSGGASVVCFLNNFYPKDINVKWKIDGSERQNGVLNSWTDQDSKDSTYSMSSTLTLTKDEYERHNSYTCEATHKTSTSPIVKSFNRNEC
notes: as for B1
B3: anti-MARCO antibody 6D8 (antibody, mouse IgG2a, kappa)
heavy: QVQLKESGPGLVAPSQSLSIACTVSGFSLTNYAISWVRQPPGKGLEWLGVIWTGGGTNYNSTLKSRLSISKDNSKSQVFLKMNSLQTDDTARYNCARNSGDWYFDVWGPGTTVTVSSAKTTAPSVYPLAPVCGDTTGSSVTLGCLVKGYFPEPVTLTWNSGSLSSGVHTFPAVLQSDLYTLSSSVTVTSSTWPSQSITCNVAHPASSTKVDKKIEPRGPTIKPCPPCKCPAPNAAGGPSVFIFPPKIKDVLMISLSPIVTCVVVDVSEDDPDVQISWFVNNVEVHTAQTQTHREDYNSTLRVVSALPIQHQDWMSGKEFKCKVNNKDLGAPIERTISKPKGSVRAPQVYVLPPPEEEMTKKQVTLTCMVTDFMPEDIYVEWTNNGKTELNYKNTEPVLDSDGSYFMYSKLRVEKKNWVERNSYSCSVVHEGLHNHHTTKSFSRTPGK
light: DIVMSQSPSSLAVSVGEKVTMSCKSSQSLLYSSNQKNYLAWYQQKPGQSPHLLIYWASTRESGVPDRFIGSGSGTDFTLTISSVKAEDLAVYYCQQYYDYPPTFGSGTKLEIKRADAAPTVSIFPPSSEQLTSGGASVVCFLNNFYPKDINVKWKIDGSERQNGVLNSWTDQDSKDSTYSMSSTLTLTKDEYERHNSYTCEATHKTSTSPIVKSFNRNEC
notes: as for B1

target: T5, COL13A1 expressed on transfected 293T cells (UniProt Q5TAT6 1-717, limits assumed); assay: IHC on 293T-transfected cell pellets; '-' = no detectable signal
T5 construct: whole, on cells
T5 sequence (Q5TAT6 whole entry): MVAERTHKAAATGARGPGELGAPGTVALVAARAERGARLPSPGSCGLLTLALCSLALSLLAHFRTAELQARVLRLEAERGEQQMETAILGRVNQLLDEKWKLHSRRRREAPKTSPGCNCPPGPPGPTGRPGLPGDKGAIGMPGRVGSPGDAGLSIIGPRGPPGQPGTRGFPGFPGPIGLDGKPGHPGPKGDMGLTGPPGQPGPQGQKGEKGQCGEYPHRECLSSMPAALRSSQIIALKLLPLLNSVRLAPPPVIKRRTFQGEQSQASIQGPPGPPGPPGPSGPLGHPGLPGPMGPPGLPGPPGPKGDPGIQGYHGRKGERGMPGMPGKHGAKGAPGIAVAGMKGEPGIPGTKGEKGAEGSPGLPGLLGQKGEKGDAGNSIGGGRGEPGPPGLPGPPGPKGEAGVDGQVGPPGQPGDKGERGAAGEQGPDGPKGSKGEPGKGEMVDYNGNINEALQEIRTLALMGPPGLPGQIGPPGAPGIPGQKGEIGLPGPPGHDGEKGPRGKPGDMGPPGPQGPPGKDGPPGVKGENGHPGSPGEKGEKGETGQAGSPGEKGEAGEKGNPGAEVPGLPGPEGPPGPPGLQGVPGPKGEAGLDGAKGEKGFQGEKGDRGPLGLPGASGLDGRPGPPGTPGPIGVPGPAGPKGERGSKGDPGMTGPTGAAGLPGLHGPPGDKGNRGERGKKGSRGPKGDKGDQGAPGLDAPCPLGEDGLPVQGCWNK
Description: A biopsy punch was used to make cell pellet tissue microarrays, from which sections were cut and slides were prepared. […] Samples were pre-treated with Diva Decloake and blocked with intelliPATH FLX™ peroxidase blocking solution and background Punisher (Biocare Medical). […] Tissues were washed and bluing reagent (Ventana) was added.

Binder | binding result
B1 | no binding
B2 | no binding
B3 | no binding

target: T1, collagen 17A1 (COL17A1) expressed on …; assay: IHC on 721.221 stable cell lines; '-' = no detectable signal
Description: 721.221 cells were assayed using the Leica BOND RX fully automated research stainer platform. […] Samples were pre-treated with Diva Decloaker and blocked with intelliPATH FLX™ peroxidase blocking solution.

Binder | binding result
B1 | no binding
B2 | no binding
B3 | no binding

target: T6, SCARA5 expressed on transfected 293T cells (UniProt Q6ZMJ2 1-495, limits assumed); assay: flow cytometry on 293T-SCARA5 cells, Alexa647 anti-mouse IgG secondary
T6 construct: whole, on cells
T6 sequence (Q6ZMJ2 whole entry): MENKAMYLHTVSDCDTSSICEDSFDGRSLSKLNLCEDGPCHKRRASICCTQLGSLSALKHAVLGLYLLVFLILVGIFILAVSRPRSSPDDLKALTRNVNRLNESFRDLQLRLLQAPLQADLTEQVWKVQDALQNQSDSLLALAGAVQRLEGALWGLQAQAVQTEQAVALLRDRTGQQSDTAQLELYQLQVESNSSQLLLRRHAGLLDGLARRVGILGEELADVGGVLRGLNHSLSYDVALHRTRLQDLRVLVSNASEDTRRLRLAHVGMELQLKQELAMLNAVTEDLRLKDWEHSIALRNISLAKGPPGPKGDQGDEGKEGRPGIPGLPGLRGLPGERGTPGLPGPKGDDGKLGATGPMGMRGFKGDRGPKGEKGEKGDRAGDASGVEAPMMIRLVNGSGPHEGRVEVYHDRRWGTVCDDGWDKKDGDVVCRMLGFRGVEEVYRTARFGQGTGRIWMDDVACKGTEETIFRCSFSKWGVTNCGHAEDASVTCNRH
Description: (§1) An Alexa647-labeled anti-mouse IgG secondary antibody was added to the plates. Positive binding was measured by flow cytometry and analyzed using FlowJo software.
(§2) Binding was detected using an Alexa647-labeled anti-mouse IgG secondary antibody (Jackson ImmunoResearch). Cells were analyzed by flow cytometry on a LSRFortessa™ instrument (BD Biosciences) and using FlowJo software. Live cells were gated before analysis. The percentage of live cells bound by the antibodies in each subset (% mAb binding+) and the mean fluorescence intensity (MFI) were calculated. Non-specific background staining was determined with secondary antibody alone.

Binder | binding result
B1 | no binding (tested: 2.5 µg/mL)
B2 | no binding (tested: 2.5 µg/mL)
B3 | no binding (tested: 2.5 µg/mL)

target: T2, MSR1 expressed on transfected 293T cells; assay: flow cytometry on 293T-MSR1 cells, Alexa647 anti-mouse IgG secondary
Description: as §1, §2

Binder | binding result
B1 | no binding (tested: 2.5 µg/mL)
B2 | no binding (tested: 2.5 µg/mL)
B3 | no binding (tested: 2.5 µg/mL)

target: T3, human MARCO expressed on cells …; assay: flow cytometry, antibody at 2.5 µg/mL, Alexa647 anti-mouse IgG secondary
Description: as §1, §2

Binder | binding result
B1 | binds
B2 | binds
B3 | binds

target: T4, human MARCO (form in the assay not …); assay: ELISA, FACS and IHC screening

Binder | binding result
B1 | binds
B2 | binds
B3 | binds

target: T7, CD163L expressed on transfected 293T cells (UniProt Q9NR16 41-1453); assay: flow cytometry on 293T-CD163L cells, Alexa647 anti-mouse IgG secondary
T7 construct: whole, on cells
T7 sequence (Q9NR16 41-1453): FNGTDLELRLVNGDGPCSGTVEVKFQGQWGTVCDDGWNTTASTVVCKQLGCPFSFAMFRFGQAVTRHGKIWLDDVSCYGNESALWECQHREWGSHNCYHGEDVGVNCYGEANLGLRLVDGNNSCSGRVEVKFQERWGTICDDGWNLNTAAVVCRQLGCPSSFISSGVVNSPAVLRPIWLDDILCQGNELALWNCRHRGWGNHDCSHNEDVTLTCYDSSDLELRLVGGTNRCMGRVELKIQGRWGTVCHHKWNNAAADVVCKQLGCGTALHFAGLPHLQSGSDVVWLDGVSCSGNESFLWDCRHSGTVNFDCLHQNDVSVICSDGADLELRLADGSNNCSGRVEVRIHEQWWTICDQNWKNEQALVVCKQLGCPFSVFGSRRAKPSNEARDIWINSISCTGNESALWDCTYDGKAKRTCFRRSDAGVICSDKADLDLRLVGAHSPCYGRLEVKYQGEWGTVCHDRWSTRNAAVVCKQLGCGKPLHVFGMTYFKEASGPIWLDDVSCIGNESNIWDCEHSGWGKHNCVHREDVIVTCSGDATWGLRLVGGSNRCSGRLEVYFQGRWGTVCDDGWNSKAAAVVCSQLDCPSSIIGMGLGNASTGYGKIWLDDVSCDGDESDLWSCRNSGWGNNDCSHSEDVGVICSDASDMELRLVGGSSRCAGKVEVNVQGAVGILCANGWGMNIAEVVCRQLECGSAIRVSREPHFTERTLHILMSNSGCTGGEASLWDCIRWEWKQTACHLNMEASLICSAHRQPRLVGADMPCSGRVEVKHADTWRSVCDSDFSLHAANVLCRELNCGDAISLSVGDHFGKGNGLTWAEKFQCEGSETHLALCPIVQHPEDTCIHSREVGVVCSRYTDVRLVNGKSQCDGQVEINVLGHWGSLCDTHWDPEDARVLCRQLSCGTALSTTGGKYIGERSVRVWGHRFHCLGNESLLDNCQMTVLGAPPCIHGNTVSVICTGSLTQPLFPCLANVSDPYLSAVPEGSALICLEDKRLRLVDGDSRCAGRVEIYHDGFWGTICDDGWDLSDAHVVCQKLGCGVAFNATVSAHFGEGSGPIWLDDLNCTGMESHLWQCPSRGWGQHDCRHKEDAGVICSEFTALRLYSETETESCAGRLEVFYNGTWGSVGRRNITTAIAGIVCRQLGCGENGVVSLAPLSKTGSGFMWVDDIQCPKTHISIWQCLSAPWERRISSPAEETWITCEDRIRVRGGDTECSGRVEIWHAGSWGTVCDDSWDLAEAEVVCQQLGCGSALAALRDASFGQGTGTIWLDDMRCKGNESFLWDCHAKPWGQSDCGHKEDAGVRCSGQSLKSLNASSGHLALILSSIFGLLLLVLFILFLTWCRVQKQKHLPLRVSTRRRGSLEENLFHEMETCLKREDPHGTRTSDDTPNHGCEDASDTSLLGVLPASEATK
Description: as §1, §2

Binder | binding result
B1 | no binding (tested: 2.5 µg/mL)
B2 | no binding (tested: 2.5 µg/mL)
B3 | no binding (tested: 2.5 µg/mL)
